The source of these data is ChEMBL document CHEMBL1145290, “Beta-glucuronidase-cleavable prodrugs of O6-benzylguanine and O6-benzyl-2'-deoxyguanosine” (J Med Chem, 2005).

Substrate in data set [1]: O=C(Nc1nc(OCc2ccccc2)c2ncn([C@H]3C[C@H](O)[C@@H](CO)O3)c2n1)OCc1ccc(O[C@@H]2O[C@H](C(=O)O)[C@@H](O)[C@H](O)[C@H]2O)c([N+](=O)[O-])c1
Briefly: (§1) KM value using bovine liver beta-glucuronidase obtained at 370 C in MOPS buffer of pH 7.0. As to conditions: Bos taurus.

Substrate in data set [2]: O=C(Nc1nc(OCc2ccccc2)c2[nH]cnc2n1)OCc1ccc(O[C@@H]2OC(C(=O)O)[C@@H](O)C(O)[C@@H]2O)c([N+](=O)[O-])c1
Described as §1. To be noted: Bos taurus.

Substrate in data set [3]: O=C(Nc1nc(OCc2ccccc2)c2ncn([C@H]3C[C@H](O)[C@@H](CO)O3)c2n1)OCc1ccc(O[C@@H]2O[C@H](C(=O)O)[C@@H](O)[C@H](O)[C@H]2O)c([N+](=O)[O-])c1
Briefly: (§2) Vmax value using bovine liver beta-glucuronidase obtained at 370 C in MOPS buffer of pH 7.0. As to conditions: Bos taurus.

Substrate in data set [4]: O=C(Nc1nc(OCc2ccccc2)c2[nH]cnc2n1)OCc1ccc(O[C@@H]2OC(C(=O)O)[C@@H](O)C(O)[C@@H]2O)c([N+](=O)[O-])c1
The description is as §2. As to conditions: Bos taurus.

Substrate in data set [5]: O=C(Nc1nc(OCc2ccccc2)c2ncn([C@H]3C[C@H](O)[C@@H](CO)O3)c2n1)OCc1ccc(O[C@@H]2O[C@H](C(=O)O)[C@@H](O)[C@H](O)[C@H]2O)c([N+](=O)[O-])c1
Briefly: (§3) KM value using Escherichia coli beta-glucuronidase obtained at 370 C in MOPS buffer of pH 7.0.

Substrate in data set [6]: O=C(Nc1nc(OCc2ccccc2)c2[nH]cnc2n1)OCc1ccc(O[C@@H]2OC(C(=O)O)[C@@H](O)C(O)[C@@H]2O)c([N+](=O)[O-])c1
Described as §3.

Substrate in data set [7]: O=C(Nc1nc(OCc2ccccc2)c2ncn([C@H]3C[C@H](O)[C@@H](CO)O3)c2n1)OCc1ccc(O[C@@H]2O[C@H](C(=O)O)[C@@H](O)[C@H](O)[C@H]2O)c([N+](=O)[O-])c1
Briefly: (§4) Vmax value using Escherichia coli beta-glucuronidase obtained at 370 C in MOPS buffer of pH 7.0.

Substrate in data set [8]: O=C(Nc1nc(OCc2ccccc2)c2[nH]cnc2n1)OCc1ccc(O[C@@H]2OC(C(=O)O)[C@@H](O)C(O)[C@@H]2O)c([N+](=O)[O-])c1
The description is as §4.

B1: Beta-glucuronidase (Bos taurus), A3KMY8 (protein)
chain: MLRGSAGAWAVLGPLLWGCGLSLLQGGMLYPRESRSRERKELDGLWSFRADFSDNRRQGFEQQWYRAPLRESGPTLDMPVPSSFNDVGQDGQLRSFVGWVWYEREITLPQRWTEDLGTRVVLRIGSAHYYAIVWVNGVHVLEHEGGHLPFEADISKLVQSGPLSSCRITIAINNTLSPHTLPPGTILYKTDPSMYPKGYFVQNTKFDFFNYAGLHRSVLLYTTPTTYIDDITVTTDMDQDIGLVNYQIIVQGSDHFQVDVSLLDEEGKVMAKGAGAEGQLQVPSAHLWWPYLMHEHPAYLYSLEVKLTAQTAVGPVSDFYTLPVGIRTVAVTKSQFLINGKPFYFRGVNKHEDADIRGKGFDWPLLVKDFNLLRWLGANAFRTSHYPYSEEVLQLCDRYGIVVIDESPGVGIVLVESFSNVSLQHHLEVMEEMIRRDKNHPAVVMWSLANEPASFLKPAGYYFKTLIAHTKALDPSRPVTFVTNTNYEADLGAPYVDIICVNSYYSWYHDYGHMEVIQLQLATQFENWYKAYQKPMIQSEYGADAIEGFHEDPPLMFSEEYQKGLLQQYHVVLDQKRKEYVVGELIWNFADFMTNQSPVRMIGNRKGIFTRQRQPKSAAFLLRERYWKLANETRYQRSAVTSQCVGSGLFTV
Consider B1, for which the Km was determined as 360 µM in data set [1] and 240 µM in data set [2]. The Vmax in data set [3] is 0.39 µmol/mg/min; in data set [4], 0.27 µmol/mg/min.

B2: Beta-glucuronidase (Escherichia coli (strain K12)), P05804 (protein)
chain: MLRPVETPTREIKKLDGLWAFSLDRENCGIDQRWWESALQESRAIAVPGSFNDQFADADIRNYAGNVWYQREVFIPKGWAGQRIVLRFDAVTHYGKVWVNNQEVMEHQGGYTPFEADVTPYVIAGKSVRITVCVNNELNWQTIPPGMVITDENGKKKQSYFHDFFNYAGIHRSVMLYTTPNTWVDDITVVTHVAQDCNHASVDWQVVANGDVSVELRDADQQVVATGQGTSGTLQVVNPHLWQPGEGYLYELCVTAKSQTECDIYPLRVGIRSVAVKGEQFLINHKPFYFTGFGRHEDADLRGKGFDNVLMVHDHALMDWIGANSYRTSHYPYAEEMLDWADEHGIVVIDETAAVGFNLSLGIGFEAGNKPKELYSEEAVNGETQQAHLQAIKELIARDKNHPSVVMWSIANEPDTRPQGAREYFAPLAEATRKLDPTRPITCVNVMFCDAHTDTISDLFDVLCLNRYYGWYVQSGDLETAEKVLEKELLAWQEKLHQPIIITEYGVDTLAGLHSMYTDMWSEEYQCAWLDMYHRVFDRVSAVVGEQVWNFADFATSQGILRVGGNKKGIFTRDRKPKSAAFLLQKRWTGMNFGEKPQQGGKQ
B2: the Michaelis-Menten constant (Km) was 41 µM in data set [5] and 17 µM in data set [6]. Moreover, the Vmax came to 11 µmol/mg/min in data set [7] and 7.8 µmol/mg/min in data set [8].
